How the values were obtained:
[1] = biological target: T1, human histidine-rich glycoprotein (HRG), purified from human plasma (human, UniProt P04196 19-525); assay: sandwich ELISA, HRG captured by solid phase 9-1F
T1 construct: also called human purified HRG; human purified HRG protein
T1 sequence: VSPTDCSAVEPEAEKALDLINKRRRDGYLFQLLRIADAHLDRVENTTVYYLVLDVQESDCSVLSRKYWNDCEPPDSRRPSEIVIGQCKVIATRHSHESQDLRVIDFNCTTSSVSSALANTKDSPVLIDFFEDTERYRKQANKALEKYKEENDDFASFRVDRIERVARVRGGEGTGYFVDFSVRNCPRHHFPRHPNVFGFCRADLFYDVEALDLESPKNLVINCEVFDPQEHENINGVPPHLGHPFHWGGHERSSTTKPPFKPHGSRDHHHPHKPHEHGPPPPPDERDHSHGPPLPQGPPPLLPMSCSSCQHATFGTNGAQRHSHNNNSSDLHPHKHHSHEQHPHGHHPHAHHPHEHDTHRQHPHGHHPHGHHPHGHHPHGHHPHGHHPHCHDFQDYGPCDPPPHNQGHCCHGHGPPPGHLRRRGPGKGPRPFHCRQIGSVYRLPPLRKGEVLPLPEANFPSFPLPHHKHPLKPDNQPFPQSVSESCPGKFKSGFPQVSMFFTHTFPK
Procedure: (§1) The capture antibody solution was dispensed at 25 μL per well into 384-well Maxisorp plates (NUNC), and the plates were incubated at room temperature for 3 hours. The plates were washed twice with 120 μL of washing solution per well (0.05% Tween 20-containing PBS). A blocking solution (1% BSA-containing PBS) was dispensed at 30 μL per well, and the plates were incubated at room temperature for 3 hours. The blocking solution was removed followed by dispensing the standard substance for evaluation at 20 μL per well (n=2), and the plates were incubated at room temperature for 3 hours. After washing the plates four times with the washing solution as described above, the solution of each detector antibody was dispensed at 10 μL per well, followed by dispensing a horseradish peroxidase-streptavidin solution (0.05 μg/mL) at 10 μL per well, and the plates were incubated at room temperature for 1 hour. After washing the plates four times with the washing solution as described above, a chromogenic substrate solution (TMB (3,3′,5,5′-tetramethylbenzidine)) was dispensed at 20 μL per well followed by incubating the plates at room temperature for 10 minutes, then a reaction stop solution 0.5 M H₂SO₄ was added at 20 μL/well, and the absorbance at 450 nm was measured.
(§2) The results regarding the evaluation of combinations chosen from 21 types of anti-HRG monoclonal antibodies are shown in Table 1. In Table 1, the absorbance at a wavelength of 450 nm of each combination was determined as follows: less than 1.0 OD: −, 1.0 OD or more and less than 2.0 OD: +, 2.0 OD or more and less than 3.0 OD: ++, and 3.0 OD or more: +++. The combinations of antibodies which could construct a sandwich ELISA system having enough level of absorbance change were 86 sets evaluated as ++ or +++ in Table 1.

[2] = biological target: T1, human histidine-rich glycoprotein …; assay: sandwich ELISA, HRG captured by solid phase 14-6F
Procedure: as §1, §2

[3] = biological target: T1, human histidine-rich glycoprotein …; assay: sandwich ELISA, HRG captured by solid phase 75-2D
Procedure: as §1, §2

- absorbance at 450 nm [1]: < 1 OD
- absorbance at 450 nm (OD450) [2]: 1 to 2 od
- absorbance at 450 nm (OD450) [3]: 2 to 3 od
B1: anti-HRG monoclonal antibody 69-1A (antibody, V domains shown)
VH: EVKLEESGGGLVQPGGSMKLSCAASGFTFSDAWMDWVRQSPEKGLEWVAEIRSKANNHGTYYAESVKGRFTISRDDSKSSVYLRMNSLSAEDTGIYYCTRPFAYWGQGTLVTVSA
VL: DVVVTQTPLSLPVSLGDQASISCRSSQSLVHIDGNTYFHWYVQKPGQSPKLLIYKVSNRFSGVPDRFSGSGSGTDFTLKISRVEAEDLGVYFCSQSTHVPLTFGAGTKLELK
notes: Mouse hybridoma monoclonal; also called clone No. 69-1A

From patent publication US20250258178A1 (SHIONOGI, published 2025)
